Test results: US20230310712A1, “IMPLANTABLE CELL CHAMBER DEVICE AND USES THEREOF” (Takeda Pharmaceutical Company Limited, priority 2020, published 2023)

Tests used:
[1] = Plasma concentration of adalimumab or ustekinumab in implanted Nude mice (human IgG Fc ELISA); format: in vivo, mouse; conditions: for day plateau was reached: nPET-PBT/PET/nPU cell chamber device; for average plasma concentration plateau: nPET-PBT/PET/nPU cell chamber device with antibody-expressing ARPE19 cells, subcutaneous
Experimental: To assess the ability to deliver biologics into the blood flow and the applicability of the devices to other biologics, secretion of adalimumab or ustekinumab from the nPET-PBT/PET/nPU cell chamber device described in Example 10 was assessed in vivo. The nPET-PBT/PET/nPU cell chamber device was seeded with ARPE19 cells stably expressing adalimumab or ustekinumab (see also Example 8) and subcutaneously implanted in Nude mice. Mice were assessed by blood collection over the course of >100 days to measure the plasma concentration of each antibody over time. Human IgG concentration in plasma was tested by an ELISA assay which detected the human IgG Fc region. […] (Day 1-Day 60: N=5, Day 61-Day 81: N=4, Day 82-92: N=3, Day 93-Day 108: N=2). Similarly, the average ustekinumab plasma concentration reached a plateau of approximately 60-110 μg/mL around Day 20 and maintained a steady-state over 80 days (N=5).

[2] = test system: vedolizumab/Luc-ARPE19 cells; assay: Cell growth and vedolizumab secretion on tacrolimus-loaded nPET-PBT; format: cell-based, human; conditions: 200,000 cells/condition, three days, fluorescence imaging
Experimental: Cells were grown on tacrolimus-loaded nPET-PBT discs over three days, after which the surfaces of the nPET-PBT material were visually inspected by fluorescence imaging. […] Cells were further assessed three weeks post-seeding.

[3] = HPLC analysis of tacrolimus solvent-extracted from electrospun nPET-PBT; format: physicochemical; conditions: HPLC after solvent extraction
Experimental: To reduce inflammation due to implantation trauma, the cell scaffold device can be loaded with tacrolimus (FK506). To assess cell seeding and biomolecule secretion on tacrolimus-treated materials, electrospun nPET-PBT was loaded with tacrolimus by dissolving 0% tacrolimus, 2% tacrolimus, or 4% tacrolimus to the polymer solution prior to electrospinning.
Incorporation of tacrolimus into nPET-PBT was assessed by solvent extracting the tacrolimus from the electrospun materials. The solvent extracted solution was then analyzed by high performance liquid chromatography (HPLC).

[4] = target: human TNFα (Homo sapiens, UniProt P01375); assay: Neutralization of human TNFα activity in L-929 cells (CCK-8 viability); format: cell-based; conditions: antibody secreted by ARPE-19 cells in culture medium, human TNFα 1 ng/mL
Experimental: Adalimumab is an anti-TNFα antibody. To assay for adalimumab activity in the cell culture medium of adalimumab/ARPE-19 cells, L-929 cells were seeded into a 96 well cell culture plate at the density of 5,000 cells/well in DMEM supplemented with 10% FBS. After 20-hour incubation, the cells were sensitized with Actinomycin D (2 μg/mL) for two hours. Then the cells were incubated with culture medium comprising antibodies secreted by the ARPE-19 cells in the presence of human TNFα (1 ng/mL). After another 20-hour incubation the cells were evaluated for cell viability by a CCK-8 assay to test for neutralization of human TNFα activity.

human TNFα, sequence (P01375 77-233 limits assumed): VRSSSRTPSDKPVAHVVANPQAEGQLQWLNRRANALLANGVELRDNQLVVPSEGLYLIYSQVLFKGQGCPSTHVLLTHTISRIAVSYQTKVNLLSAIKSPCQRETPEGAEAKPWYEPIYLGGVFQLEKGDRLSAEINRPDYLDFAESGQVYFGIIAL

Row | Compound | day plateau was reached [1] [days] | average plasma concentration plateau [1] [µg/mL] | effect on cell proliferation or growth [2] | drug degradation following loading onto electrospun nPET-PBT [3] | TNFα neutralizing activity [4]
1 | ustekinumab: anti-IL-12/IL-23 antibody | ~20 | 60 to 110 |  |  | 
2 | C=CC[C@@H]1/C=C(\C)C[C@H](C)C[C@H](OC)[C@H]2O[C@@](O)(C(=O)C(=O)N3CCCC[C@H]3C(=O)O[C@H](/C(C)=C/[C@@H]3CC[C@@H](O)[C@H](OC)C3)[C@H](C)[C@@H](O)CC1=O)[C@H](C)C[C@@H]2OC [tacrolimus] |  |  | no detectable effect on cell proliferation or growth | no drug degradation | 
3 | adalimumab | ~25 | 50 to 100 |  |  | retained TNFα neutralizing activity
